In the supplement of paper PMC9170038:

Tested on: MS2 coat protein
Test: apparent KD of MS2 coat protein; designed switch direction (-1 OFF switch, 1 ON switch): 1; higher = weaker reporter binding
Method in brief: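 Stalled E. coli RNA polymerase transcribed designed RNA switches on Illumina chips, which were then titrated with SNAP-549-labelled MS2 coat protein, doubling from 0.7 or 1.5 nM to 3 µM. Steps lasted from 0.8–1.5 h at the lowest concentration to 10–20 min at the highest. The apparent KD is each design's median over clusters of curve-fitted normalised fluorescence.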

[1] = input ligand: microRNA oligo, concentration not stated
[2] = Eterna round: R95, input ligand: FMN 200 uM
[3] = Eterna round: R95, input ligand: microRNA oligo, concentration not stated
[4] = Eterna round: R95, input ligand: none

Row | Sequence | apparent KD of MS2 coat protein (input ligand: FMN 200 uM) | apparent KD of MS2 coat protein [1] | apparent KD of MS2 coat protein (input ligand: none) | apparent KD of MS2 coat protein [2] | apparent KD of MS2 coat protein [3] | apparent KD of MS2 coat protein [4]
1 | GCUGCGAUUAACGCCUACAUGAGGAUCACCCAUGUAUGUAGGCAGGAUAUCGUUUGCUUUGCAAACGAGAAGGGCUGUAGUAGC [salish99_SSNG3_R04_004] (Eterna round: R96, puzzle: Same State NG 3) | 0.0394 µM | 0.0684 µM | 0.0869 µM |  |  | 
2 | AAAGAUGGACAUGAGGAUCACCCAUGUGGAAAGUGAACAAGCUUUUGCUCGUGACAAAUGAACAAUCCAAUCCUAAA [mksensor] (puzzle: Sensor for hsa-mir-208a version 2) |  |  |  | 0.0263 µM | 0.0245 µM | 0.025 µM
3 | GCUCGAUGAUAGUCCUACAUGAGGAUCACCCAUGUAAGUGGGCAGGAUAUCUACAUGCAGAAUGUAGAGAAGGGCCCGUCGAGC [SameState NG3 #56] (Eterna round: R96, puzzle: Same State NG 3) | 0.0161 µM | 0.0164 µM | 0.0232 µM |  |  | 
4 | AGGAAACAUGAGGAUCACCCAUGUAAAAAUAUGGGAGGAUAUGCGAAAAGAAACAAAGAAGCAGAAGGCCUAAGAA [75%, Ex5 sub 1, 7] (Eterna round: R96, puzzle: Same State 1) |  | 0.0857 µM |  |  |  | 
5 | GGAGCCGGCACUGAGGAUAUUCAUAUUAAAACAUGAGGAUCACCCAUGUAGGCCAGAAGGCCUUGGGAGAAGGCGGGUCGACUCG [Diqureveri - 1] (puzzle: Same State 2) |  |  |  | 0.0297 µM | 0.523 µM | 0.371 µM
6 | UGAAUAGUGAUAGGAUAUACAUGAGGAAUCCUCGUAGAAGGAUCAUAACAUGAGGAUCACCCAUGUAGCGCUCGAAAGAGCGCA [Mat - Same State NG 1 - JL mod - D55] (Eterna round: R96, puzzle: Same State NG 1) | 0.244 µM | 0.207 µM | 0.0565 µM |  |  | 
7 | CCCGCGUUUCGCGCCUACAUGAGGAUCACCCAUGUUUGUAGGCAGGAUAUCGUCCGCUCUGCGGGCGAGAAGGGCUGUUGUGGU [salish99_SSNG3_R04_029] (Eterna round: R96, puzzle: Same State NG 3) |  | 0.0729 µM |  |  |  | 
8 | AUAAAACAUGAGGAUCACCCAUGUAGACGGAGAAACGUCACAUAGGAUAUAGUCAGCGGCGUUGACUAGAAGGGUGGUAGAAAA [Qubeedbi] (Eterna round: R96, puzzle: Same State NG 3) | 0.286 µM | 0.0974 µM | 0.251 µM |  |  | 
9 | GUAGCAUACCGAGGAUAUUCAUAUAAUAACAUGAGGAUCACCCAUGUAUAUAGGCGAAAGCCUUGGGAGAAGGCGGAAUGCUAC [Xeonanis - 20 Mod64] (Eterna round: R96, puzzle: Same State NG 2) | 0.0171 µM | 0.0189 µM | 0.031 µM |  |  | 
10 | UUGAUGAAUUAAGGAUAUCGAGUCGUCUAAUUAAACAUGAGGAUCACCCAUGUGGGUUGUGGUAUCGAGAAGGUAAAUUACUUA [JR_SSNG2_Sub098] (Eterna round: R96, puzzle: Same State NG 2) | 0.0662 µM | 0.0675 µM | 0.0926 µM |  |  | 
11 | GGUGGGUUACUACCAACACAUGAGGAUCACCCAUGUUUUGGGAAGGAUAUGGUACCUAUUUGGUACCAGAAGGUCCUGUUGGUG [salish99_SSNG3_r04_706] (Eterna round: R96, puzzle: Same State NG 3) | 0.0366 µM | 0.105 µM | 0.116 µM |  |  | 
12 | GUGGUCAGACAUGAGGAUCACCCAUGUGGAAUAAAUAAGGCAUAGGAUAUGAAAUAUAGGAUAUAUCAGAAGGAUGGGUUGGUG (Eterna round: R96, puzzle: Same State NG 3) |  | 0.131 µM |  |  |  | 
13 | GCUCGGAUGAUGGCCCACAUGAGGAUCACCCAUGUGAGUGGGCAGGAUAUCUAGAUUAAGGAUGUAGAGAAGGGCCUACCGAGC [SameState NG3 #34] (Eterna round: R96, puzzle: Same State NG 3) | 2.07 µM | 0.1 µM | 0.759 µM |  |  | 
14 | UAAUUAAGUCAAGGAUAUCACGUCGAUUAGACGUGAGAAGGUGACCAAUACAUGAGGAUCACCCAUGUAAUACAUGAAUAAUUA [SSNG1/12-B2] (Eterna round: R96, puzzle: Same State NG 1) | 0.0227 µM | 0.0532 µM | 0.0564 µM |  |  | 
15 | CUAGGAGGAUGAGGAUAUGCAGAGGAUCACCCUGUAGAAGGCAAGAGAUGAGGAUAUGCAGAGGAUCACCCUGUAGAAGGCAAC [pwkr ssNG DX.1] (Eterna round: R96, puzzle: Same State NG 1) | 0.307 µM | 0.0865 µM | 0.122 µM |  |  | 
16 | UGGCUCAGACGAGGAUAUAUGUGAUCACAUGAGGAUCACCCAUGUCUCGAGCUUCGGCUCGAGACAUAGAAGGUGUCUGAGCCA [SSNG2/3-C2] (Eterna round: R96, puzzle: Same State NG 2) | 0.0148 µM | 0.0962 µM | 0.0495 µM |  |  | 

Row | Sequence | apparent KD of MS2 coat protein (input ligand: FMN 200 uM) | apparent KD of MS2 coat protein [1] | apparent KD of MS2 coat protein (input ligand: none) | apparent KD of MS2 coat protein [2] | apparent KD of MS2 coat protein [3] | apparent KD of MS2 coat protein [4]
17 | GAGAGAGGAAGCGAGGAUAUCGUGUGGAGUACAUGAGGAUCACCCAUGUUGUAGGUAGAGGUAGGCGAGAAGGCGCAGGAGAGGU [JR_SS2_Sub097] (puzzle: Same State 2) |  |  |  | 0.034 µM | 0.0415 µM | 0.0581 µM
18 | AAUCGUUUGAUAGGAUAUCGCUAUACAUGAGGAUCACCCAUGUUUACCACACUGGUUUUUCGUACCGAGAAGGAUUCUGAUGAU [JL JR sub007 mod 9] (Eterna round: R96, puzzle: Same State NG 2) | 0.0402 µM | 0.0331 µM | 0.0435 µM |  |  | 
19 | AGGCUCAGAGCAGGAUAUAUGUGAUCACAUGAGGAUCACCCAUGUCUCGAGCUUCGGCUCGAGACAUAGAAGGGCUCUGAGCCA [SSNG2/3-B1] (Eterna round: R96, puzzle: Same State NG 2) | 2.49 µM | 0.0393 µM | 0.0283 µM |  |  | 
20 | CUGUAUCACGGAGGAUAUGGGCUGAGACCAGGGCAACCCUGGUCAACAUGAGGAUCACCCAUGUCCCAGAAGGCCGCGAUGCUA [Geisorqu] (Eterna round: R96, puzzle: Same State NG 2) | 0.0238 µM | 0.0829 µM | 0.137 µM |  |  | 
21 | GAAGGAUGAGCGUAGGAUAUAGGAGGAGUGACAUGAGGAUCACCCAUGUAGUAGGAGGGAGGGUACUAGAAGGACGAGGAAGAAG [JR_SS2_Sub067] (puzzle: Same State 2) |  |  |  | 0.0397 µM | 0.0493 µM | 0.0515 µM
22 | AUAAAACACAUGAGGAUCACCCAUGUGGCCGAAGAAGGCACACAGGAUAUCAAGCAACUAAAGCUUGAGAAGGGUGAGACAAAA [Quistera] (Eterna round: R96, puzzle: Same State NG 3) | 0.494 µM | 0.0307 µM | 0.0923 µM |  |  | 
23 | AUAAGGCAAGCUUUUUUCUCGUUGUGUAAACAUGAGGAUCACCCAUGUGCCCACCCUGGAUCUUUGGAUCGCAGAAC [Mais] (puzzle: Sensor for hsa-mir-208a) |  |  |  | 0.0408 µM | 0.0175 µM | 0.0408 µM
24 | UAGUGCAUUAGAGGAUAUUCUUACGACACGAGUAAGACAUGAGGAUCUCCCAUGUUGUGGCAUGGGAAGAAGGCUGAUGUGCUA [Omei SS(NG)2 Bv8] (Eterna round: R96, puzzle: Same State NG 2) | 0.0525 µM | 0.00684 µM | 0.155 µM |  |  | 
25 | AGUCCAGCCUGAGCUGGACAAAAGCAUGUACAUGAGGAUCACCCAUGUCAUGUACAAGCUUUUUGCUCGUCUUAUAA [Mat - hsa-mir-208a - Mod of JL - D25] (puzzle: Sensor for hsa-mir-208a) |  |  |  | 0.643 µM | 0.0149 µM | 0.704 µM
26 | GUGCUCGUGUAAGGAUAUGCAGCCGUUUCGGCUGCAGAAGGUACUAUAAUACAUGAGGAUCACCCAUGUCUCUAUAAUUUGGUG [salish99_SSNG1_r04_904] (Eterna round: R96, puzzle: Same State NG 1) |  | 0.107 µM |  |  |  | 
27 | GUGAAACAUGAGGAUCACCCAUGUAUGACGGGCACAGGAUAUCGUGGUUCGCUCAUACUACGAGAAGGGUGAAAAG [Inordien] (puzzle: Same State 1) |  |  |  | 0.0205 µM | 0.018 µM | 0.0189 µM
28 | GCAGAACAUGAGGAUCACCCAUGUCUCAAAUAUUGAGGAUAUGGACACGGUAUAUCCGAACCAGAAGGCGAACUGC [SS1 Teenbexe 18] (puzzle: Same State 1) |  |  |  | 0.0661 µM | 0.0743 µM | 0.0533 µM
29 | AGAUCAUGACGAGGAUAUCCGACAUGAGGAUCACCCAUGUAUGUCGGAGGACGAAUACGUCCAAAGGAGAAGGCGUCGUGGUCA [Mat - Same State NG 2 - JL mod - D38] (Eterna round: R96, puzzle: Same State NG 2) | 0.0252 µM | 0.0629 µM | 0.0854 µM |  |  | 
30 | AGUCCUGCCUGAGCAGGACAAAAGCAUGUACAUGAGGAUCACCCAUGUCAUGUACAAGCUUUUUGCUCGUCUUAAUA [Mat - hsa-mir-208a - Mod of JL - D41] (puzzle: Sensor for hsa-mir-208a) |  |  |  | 0.556 µM | 0.0154 µM | 0.854 µM
31 | AAGUUAAGCUUUUUGUUCUGCCUAUUCCAACAUGAGGAUCACCCAUGUAGUCUGACGAUUGUGUGUGUAGUUGAGAU [JR_SHM208A_Sub028] (puzzle: Sensor for hsa-mir-208a) |  |  |  | 0.0518 µM | 0.0635 µM | 0.0579 µM
